Results reported in patent US20210032299A1 (Eli Lilly, published 2021).
Starred links: 1 amine or outer side, 2 acyl side, 3 side chain; linkers in the order of their positions; H or OH if unused. Non-standard residues stand in square brackets, D forms with d. Groups on a side chain read outwards from the residue. No end group written: not given here. *: point of attachment. C20 diacid = O=C(O)CCCCCCCCCCCCCCCCCCC(=O)*; γGlu = O=C(O)[C@H](CCC(=O)[*:2])N[*:1]; αMeL = CC(C)C[C@](C)(N)C(=O)O; AEEA = NCCOCCOCC(=O)O; Aib = CC(C)(N)C(=O)O

T1: human glucose-dependent insulinotropic peptide receptor (human, UniProt P48546 22-466)
T1 sequence (looked up): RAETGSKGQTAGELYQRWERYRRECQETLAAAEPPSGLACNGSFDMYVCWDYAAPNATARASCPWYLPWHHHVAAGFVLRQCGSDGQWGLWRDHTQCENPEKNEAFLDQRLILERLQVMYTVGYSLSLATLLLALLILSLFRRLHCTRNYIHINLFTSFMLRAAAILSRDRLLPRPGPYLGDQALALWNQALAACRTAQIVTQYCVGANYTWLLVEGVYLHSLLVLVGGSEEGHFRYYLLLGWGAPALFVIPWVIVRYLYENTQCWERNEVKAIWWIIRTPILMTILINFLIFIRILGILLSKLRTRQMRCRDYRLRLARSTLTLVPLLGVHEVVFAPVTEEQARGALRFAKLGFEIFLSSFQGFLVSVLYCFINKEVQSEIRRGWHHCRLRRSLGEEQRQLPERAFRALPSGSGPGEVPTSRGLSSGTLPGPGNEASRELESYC

B1: Example 68 (peptide)
peptide: Y[Aib]EGTFISDYSI[αMeL]LDKK([AEEA-AEEA-γGlu-C20 diacid])HQ[Aib]DFVEYLLEAGPSSGAPPPS-NH2
modifications: N-terminus assumed
SMILES: CC[C@H](C)[C@H](NC(=O)[C@H](Cc1ccccc1)NC(=O)[C@@H](NC(=O)CNC(=O)[C@H](CCC(=O)O)NC(=O)C(C)(C)NC(=O)[C@@H](N)Cc1ccc(O)cc1)[C@@H](C)O)C(=O)N[C@@H](CO)C(=O)N[C@@H](CC(=O)O)C(=O)N[C@@H](Cc1ccc(O)cc1)C(=O)N[C@@H](CO)C(=O)N[C@H](C(=O)N[C@@](C)(CC(C)C)C(=O)N[C@@H](CC(C)C)C(=O)N[C@@H](CC(=O)O)C(=O)N[C@@H](CCCCN)C(=O)N[C@@H](CCCCNC(=O)COCCOCCNC(=O)COCCOCCNC(=O)CC[C@H](NC(=O)CCCCCCCCCCCCCCCCCCC(=O)O)C(=O)O)C(=O)N[C@@H](Cc1c[nH]cn1)C(=O)N[C@@H](CCC(N)=O)C(=O)NC(C)(C)C(=O)N[C@@H](CC(=O)O)C(=O)N[C@@H](Cc1ccccc1)C(=O)N[C@H](C(=O)N[C@@H](CCC(=O)O)C(=O)N[C@@H](Cc1ccc(O)cc1)C(=O)N[C@@H](CC(C)C)C(=O)N[C@@H](CC(C)C)C(=O)N[C@@H](CCC(=O)O)C(=O)N[C@@H](C)C(=O)NCC(=O)N1CCC[C@H]1C(=O)N[C@@H](CO)C(=O)N[C@@H](CO)C(=O)NCC(=O)N[C@@H](C)C(=O)N1CCC[C@H]1C(=O)N1CCC[C@H]1C(=O)N1CCC[C@H]1C(=O)N[C@@H](CO)C(N)=O)C(C)C)[C@@H](C)CC
B2: Example 64 (peptide)
peptide: Y[Aib]EGTFISDYSI[αMeL]LDKK([AEEA-AEEA-γGlu-C20 diacid])HQ[Aib]EFVEYLLETGPSSGAPPPS-NH2
modifications: N-terminus assumed
SMILES: CC[C@H](C)[C@H](NC(=O)[C@H](Cc1ccccc1)NC(=O)[C@@H](NC(=O)CNC(=O)[C@H](CCC(=O)O)NC(=O)C(C)(C)NC(=O)[C@@H](N)Cc1ccc(O)cc1)[C@@H](C)O)C(=O)N[C@@H](CO)C(=O)N[C@@H](CC(=O)O)C(=O)N[C@@H](Cc1ccc(O)cc1)C(=O)N[C@@H](CO)C(=O)N[C@H](C(=O)N[C@@](C)(CC(C)C)C(=O)N[C@@H](CC(C)C)C(=O)N[C@@H](CC(=O)O)C(=O)N[C@@H](CCCCN)C(=O)N[C@@H](CCCCNC(=O)COCCOCCNC(=O)COCCOCCNC(=O)CC[C@H](NC(=O)CCCCCCCCCCCCCCCCCCC(=O)O)C(=O)O)C(=O)N[C@@H](Cc1c[nH]cn1)C(=O)N[C@@H](CCC(N)=O)C(=O)NC(C)(C)C(=O)N[C@@H](CCC(=O)O)C(=O)N[C@@H](Cc1ccccc1)C(=O)N[C@H](C(=O)N[C@@H](CCC(=O)O)C(=O)N[C@@H](Cc1ccc(O)cc1)C(=O)N[C@@H](CC(C)C)C(=O)N[C@@H](CC(C)C)C(=O)N[C@@H](CCC(=O)O)C(=O)N[C@H](C(=O)NCC(=O)N1CCC[C@H]1C(=O)N[C@@H](CO)C(=O)N[C@@H](CO)C(=O)NCC(=O)N[C@@H](C)C(=O)N1CCC[C@H]1C(=O)N1CCC[C@H]1C(=O)N1CCC[C@H]1C(=O)N[C@@H](CO)C(N)=O)[C@@H](C)O)C(C)C)[C@@H](C)CC
B3: Example 67 (peptide)
peptide: Y[Aib]EGTFISDYSI[αMeL]LDKK([AEEA-AEEA-γGlu-C20 diacid])HQ[Aib]DFVEYLLEQGPSSGAPPPS-NH2
modifications: N-terminus assumed
SMILES: CC[C@H](C)[C@H](NC(=O)[C@H](Cc1ccccc1)NC(=O)[C@@H](NC(=O)CNC(=O)[C@H](CCC(=O)O)NC(=O)C(C)(C)NC(=O)[C@@H](N)Cc1ccc(O)cc1)[C@@H](C)O)C(=O)N[C@@H](CO)C(=O)N[C@@H](CC(=O)O)C(=O)N[C@@H](Cc1ccc(O)cc1)C(=O)N[C@@H](CO)C(=O)N[C@H](C(=O)N[C@@](C)(CC(C)C)C(=O)N[C@@H](CC(C)C)C(=O)N[C@@H](CC(=O)O)C(=O)N[C@@H](CCCCN)C(=O)N[C@@H](CCCCNC(=O)COCCOCCNC(=O)COCCOCCNC(=O)CC[C@H](NC(=O)CCCCCCCCCCCCCCCCCCC(=O)O)C(=O)O)C(=O)N[C@@H](Cc1c[nH]cn1)C(=O)N[C@@H](CCC(N)=O)C(=O)NC(C)(C)C(=O)N[C@@H](CC(=O)O)C(=O)N[C@@H](Cc1ccccc1)C(=O)N[C@H](C(=O)N[C@@H](CCC(=O)O)C(=O)N[C@@H](Cc1ccc(O)cc1)C(=O)N[C@@H](CC(C)C)C(=O)N[C@@H](CC(C)C)C(=O)N[C@@H](CCC(=O)O)C(=O)N[C@@H](CCC(N)=O)C(=O)NCC(=O)N1CCC[C@H]1C(=O)N[C@@H](CO)C(=O)N[C@@H](CO)C(=O)NCC(=O)N[C@@H](C)C(=O)N1CCC[C@H]1C(=O)N1CCC[C@H]1C(=O)N1CCC[C@H]1C(=O)N[C@@H](CO)C(N)=O)C(C)C)[C@@H](C)CC
B4: Example 65 (peptide)
peptide: Y[Aib]EGTFISDYSI[αMeL]LDKK([AEEA-AEEA-γGlu-C20 diacid])HQ[Aib]EFVEYLLEAGPSSGAPPPS-NH2
modifications: N-terminus assumed
SMILES: CC[C@H](C)[C@H](NC(=O)[C@H](Cc1ccccc1)NC(=O)[C@@H](NC(=O)CNC(=O)[C@H](CCC(=O)O)NC(=O)C(C)(C)NC(=O)[C@@H](N)Cc1ccc(O)cc1)[C@@H](C)O)C(=O)N[C@@H](CO)C(=O)N[C@@H](CC(=O)O)C(=O)N[C@@H](Cc1ccc(O)cc1)C(=O)N[C@@H](CO)C(=O)N[C@H](C(=O)N[C@@](C)(CC(C)C)C(=O)N[C@@H](CC(C)C)C(=O)N[C@@H](CC(=O)O)C(=O)N[C@@H](CCCCN)C(=O)N[C@@H](CCCCNC(=O)COCCOCCNC(=O)COCCOCCNC(=O)CC[C@H](NC(=O)CCCCCCCCCCCCCCCCCCC(=O)O)C(=O)O)C(=O)N[C@@H](Cc1c[nH]cn1)C(=O)N[C@@H](CCC(N)=O)C(=O)NC(C)(C)C(=O)N[C@@H](CCC(=O)O)C(=O)N[C@@H](Cc1ccccc1)C(=O)N[C@H](C(=O)N[C@@H](CCC(=O)O)C(=O)N[C@@H](Cc1ccc(O)cc1)C(=O)N[C@@H](CC(C)C)C(=O)N[C@@H](CC(C)C)C(=O)N[C@@H](CCC(=O)O)C(=O)N[C@@H](C)C(=O)NCC(=O)N1CCC[C@H]1C(=O)N[C@@H](CO)C(=O)N[C@@H](CO)C(=O)NCC(=O)N[C@@H](C)C(=O)N1CCC[C@H]1C(=O)N1CCC[C@H]1C(=O)N1CCC[C@H]1C(=O)N[C@@H](CO)C(N)=O)C(C)C)[C@@H](C)CC
B5: Example 66 (peptide)
peptide: Y[Aib]EGTFISDYSI[αMeL]LDKK([AEEA-AEEA-γGlu-C20 diacid])HQ[Aib]DFVEYLLETGPSSGAPPPS-NH2
modifications: N-terminus assumed
SMILES: CC[C@H](C)[C@H](NC(=O)[C@H](Cc1ccccc1)NC(=O)[C@@H](NC(=O)CNC(=O)[C@H](CCC(=O)O)NC(=O)C(C)(C)NC(=O)[C@@H](N)Cc1ccc(O)cc1)[C@@H](C)O)C(=O)N[C@@H](CO)C(=O)N[C@@H](CC(=O)O)C(=O)N[C@@H](Cc1ccc(O)cc1)C(=O)N[C@@H](CO)C(=O)N[C@H](C(=O)N[C@@](C)(CC(C)C)C(=O)N[C@@H](CC(C)C)C(=O)N[C@@H](CC(=O)O)C(=O)N[C@@H](CCCCN)C(=O)N[C@@H](CCCCNC(=O)COCCOCCNC(=O)COCCOCCNC(=O)CC[C@H](NC(=O)CCCCCCCCCCCCCCCCCCC(=O)O)C(=O)O)C(=O)N[C@@H](Cc1c[nH]cn1)C(=O)N[C@@H](CCC(N)=O)C(=O)NC(C)(C)C(=O)N[C@@H](CC(=O)O)C(=O)N[C@@H](Cc1ccccc1)C(=O)N[C@H](C(=O)N[C@@H](CCC(=O)O)C(=O)N[C@@H](Cc1ccc(O)cc1)C(=O)N[C@@H](CC(C)C)C(=O)N[C@@H](CC(C)C)C(=O)N[C@@H](CCC(=O)O)C(=O)N[C@H](C(=O)NCC(=O)N1CCC[C@H]1C(=O)N[C@@H](CO)C(=O)N[C@@H](CO)C(=O)NCC(=O)N[C@@H](C)C(=O)N1CCC[C@H]1C(=O)N1CCC[C@H]1C(=O)N1CCC[C@H]1C(=O)N[C@@H](CO)C(N)=O)[C@@H](C)O)C(C)C)[C@@H](C)CC

Key:
Assay in all cases: cell-based or functional assay
human GLP-1 receptor = human GLP-1 receptor (human, UniProt P43220 24-463)
human glucagon receptor = human glucagon receptor (human, UniProt P47871 26-477)
Chain of human glucagon receptor (P47871 26-477): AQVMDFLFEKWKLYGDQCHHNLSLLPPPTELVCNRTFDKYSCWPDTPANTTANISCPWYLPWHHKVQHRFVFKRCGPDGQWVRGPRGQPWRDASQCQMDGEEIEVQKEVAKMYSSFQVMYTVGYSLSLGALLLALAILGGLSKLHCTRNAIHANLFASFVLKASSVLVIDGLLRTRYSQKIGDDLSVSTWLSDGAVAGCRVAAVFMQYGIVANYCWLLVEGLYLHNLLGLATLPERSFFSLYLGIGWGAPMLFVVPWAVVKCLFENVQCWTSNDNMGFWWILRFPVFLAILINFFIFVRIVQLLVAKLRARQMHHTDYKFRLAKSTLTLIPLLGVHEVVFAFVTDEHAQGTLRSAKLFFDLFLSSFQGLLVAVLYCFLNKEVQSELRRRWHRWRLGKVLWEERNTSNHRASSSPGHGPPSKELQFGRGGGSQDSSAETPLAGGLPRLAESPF

[1] = molecular target: T1, human glucose-dependent insulinotropic …

Binder	hGLP1R cAMP Rel EC50 (human GLP-1 receptor) [nM]	hGcgR cAMP Rel EC50 (human glucagon receptor) [nM]	hGIPR cAMP Rel EC50 [1] [nM]
B1	> 5000	3030	0.0768
B2	> 5000	3070	0.0448
B3	> 5000	> 5000	0.0627
B4	> 5000	850	0.0346
B5	> 5000	> 5000	0.0786
